Assay results as given in the RNAGym collection of RNA variant scans (doi:10.1093/molbev/msab373).

B1: Azoarcus group I ribozyme (parent)
chain: GUGCCUUGCGCCGGGAAACCACGCAAGGGAUGGUGUCAAAUUCGGCGAAACCUAAGCGCCCGCCCGGGCGUAUGGCAACGCCGAGCCAAGCUUCGGCGCCUGCGCCGAUGAAGGUGUAGAGACUAGACGGCACCCACCUAAGGCAAACGCUAUGGUGAAGGCAUAGUCCAGGGAGUGGCGAAAGUCACACAAACCGG

Variants of: B1
Experiment: reverse-splicing fitness (ratio to wild type); higher = more active; in vitro selection; Mg2+ level not given
Procedure, shortened: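 An in vitro group I ribozyme library with randomized positions was T7-transcribed and gel-purified. In triplicate, 10 pmol RNA in EPPS pH 7.5 was reacted with 50 pmoles of a 30-nt RNA substrate for 1 h at 37 °C across several added MgCl2 levels (1–48 mM), then stopped with EDTA. Products were reverse transcribed from a substrate-complementary primer, PCR-amplified and sequenced (HiSeq 4000). Fitness is a variant's read proportion after selection over that before, normalised to wild type.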

Compared with GUGCCUUGCGCCGGGAAACCACGCAAGGGAUGGUGUCAAAUUCGGCGAAACCUAAGCGCCCGCCCGGGCGUAUGGCAACGCAGAGCCAAGCUUCGGCGCCUGCGCCGAUGUAGGUGUAGCGACUAGACGGCACCCACCUAAGGCGAACGGUAUGGUGAAGGCAUAGUCGAGGGAGAGGCGAAAGUCACACAAACCGG [C82A A111U A120C A145G C150G C169G U176A], GUGCCUUGCGCCGGGAAACCACGCAAGGGAUGGUGUCAAAUUCGGCGAAACCUAAGCGCCCGCCCGGGCGUAUGGCAACGCAGAGCCAAGCUUCGGCGCCUGCGCCGAUGUAGGUGUAGCGACUAGACGGCACCCACCUAAGGCGAACGGUAUGGUGAAGGCAUAGUCGAGGGAGGGGCGAAAGUCACACAAACCGG [C82A A111U A120C A145G C150G C169G U176G] is lower in reverse-splicing fitness: 0.0112 for the first, 0.00673 for the second.

First: GUGCCUUGCGCCGGGAAACCACGCAAGGGAUGGUGUCAAAUUCGGCGAAACCUAAGCGCCCGCCCGGGCGUAUGGCAACGCAGAGCCAAGCUUCGGCGCCUGCGCCGAUGUAGGUGUAGCGACUAGACGGCACCCACCUAAGGCGAACGGUAUGGUGAAGGCAUAGUCAAGGGAGCGGCGAAAGUCACACAAACCGG [C82A A111U A120C A145G C150G C169A U176C]
Second: GUGCCUUGCGCCGGGAAACCACGCAAGGGAUGGUGUCAAAUUCGGCGAAACCUAAGCGCCCGCCCGGGCGUAUGGCAACGCAGAGCCAAGCUUCGGCGCCUGCGCCGAUGUAGGUGUAGCGACUAGACGGCACCCACCUAAGGCGAACGGUAUGGUGAAGGCAUAGUCAAGGGAGGGGCGAAAGUCACACAAACCGG [C82A A111U A120C A145G C150G C169A U176G]
The reverse-splicing fitness of the first is higher: 0.016 for the first, 0.00887 for the second.

Compared with GUGCCUUGCGCCGGGAAACCACGCAAGGGAUGGUGUCAAAUUCGGCGAAACCUAAGCGCCCGCCCGGGCGUAUGGCAACGCAGAGCCAAGCUUCGGCGCCUGCGCCGAUGUAGGUGUAGCGACUAGACGGCACCCACCUAAGGCGAACGGUAUGGUGAAGGCAUAGUCAAGGGAGAGGCGAAAGUCACACAAACCGG [C82A A111U A120C A145G C150G C169A U176A], GUGCCUUGCGCCGGGAAACCACGCAAGGGAUGGUGUCAAAUUCGGCGAAACCUAAGCGCCCGCCCGGGCGUAUGGCAACGCAGAGCCAAGCUUCGGCGCCUGCGCCGAUGUAGGUGUAGCGACUAGACGGCACCCACCUAAGGCGAACGAUAUGGUGAAGGCAUAGUCUAGGGAGUGGCGAAAGUCACACAAACCGG [C82A A111U A120C A145G C150A C169U] is lower in reverse-splicing fitness: 0.0164 for the first, 0.0104 for the second.

Compared with GUGCCUUGCGCCGGGAAACCACGCAAGGGAUGGUGUCAAAUUCGGCGAAACCUAAGCGCCCGCCCGGGCGUAUGGCAACGCAGAGCCAAGCUUCGGCGCCUGCGCCGAUGUAGGUGUAGCGACUAGACGGCACCCACCUAAGGCGAACGAUAUGGUGAAGGCAUAGUCUAGGGAGAGGCGAAAGUCACACAAACCGG [C82A A111U A120C A145G C150A C169U U176A], GUGCCUUGCGCCGGGAAACCACGCAAGGGAUGGUGUCAAAUUCGGCGAAACCUAAGCGCCCGCCCGGGCGUAUGGCAACGCAGAGCCAAGCUUCGGCGCCUGCGCCGAUGUAGGUGUAGCGACUAGACGGCACCCACCUAAGGCGAACGAUAUGGUGAAGGCAUAGUCUAGGGAGCGGCGAAAGUCACACAAACCGG [C82A A111U A120C A145G C150A C169U U176C] is lower in reverse-splicing fitness: 0.019 for the first, 0.0176 for the second.

Going from GUGCCUUGCGCCGGGAAACCACGCAAGGGAUGGUGUCAAAUUCGGCGAAACCUAAGCGCCCGCCCGGGCGUAUGGCAACGCAGAGCCAAGCUUCGGCGCCUGCGCCGAUGUAGGUGUAGCGACUAGACGGCACCCACCUAAGGCGAACGAUAUGGUGAAGGCAUAGUCUAGGGAGGGGCGAAAGUCACACAAACCGG [C82A A111U A120C A145G C150A C169U U176G] to GUGCCUUGCGCCGGGAAACCACGCAAGGGAUGGUGUCAAAUUCGGCGAAACCUAAGCGCCCGCCCGGGCGUAUGGCAACGCAGAGCCAAGCUUCGGCGCCUGCGCCGAUGUAGGUGUAGCGACUAGACGGCACCCACCUAAGGCGAACGGUAUGGUGAAGGCAUAGUCUAGGGAGCGGCGAAAGUCACACAAACCGG [C82A A111U A120C A145G C150G C169U U176C], the reverse-splicing fitness rises from 0.00879 to 0.0129.

First: GUGCCUUGCGCCGGGAAACCACGCAAGGGAUGGUGUCAAAUUCGGCGAAACCUAAGCGCCCGCCCGGGCGUAUGGCAACGCAGAGCCAAGCUUCGGCGCCUGCGCCGAUGUAGGUGUAGCGACUAGACGGCACCCACCUAAGGCGAACGGUAUGGUGAAGGCAUAGUCUAGGGAGAGGCGAAAGUCACACAAACCGG [C82A A111U A120C A145G C150G C169U U176A]
Second: GUGCCUUGCGCCGGGAAACCACGCAAGGGAUGGUGUCAAAUUCGGCGAAACCUAAGCGCCCGCCCGGGCGUAUGGCAACGCAGAGCCAAGCUUCGGCGCCUGCGCCGAUGUAGGUGUAGCGACUAGACGGCACCCACCUAAGGCGAACGGUAUGGUGAAGGCAUAGUCUAGGGAGGGGCGAAAGUCACACAAACCGG [C82A A111U A120C A145G C150G C169U U176G]
The reverse-splicing fitness of the first is higher: 0.0146 for the first, 0.00787 for the second.

Going from GUGCCUUGCGCCGGGAAACCACGCAAGGGAUGGUGUCAAAUUCGGCGAAACCUAAGCGCCCGCCCGGGCGUAUGGCAACGCAGAGCCAAGCUUCGGCGCCUGCGCCGAUGUAGGUGUAGCGACUAGACGGCACCCACCUAAGGCGAACGGUAUGGUGAAGGCAUAGUCCAGGGAGCGGCGAAAGUCACACAAACCGG [C82A A111U A120C A145G C150G U176C] to GUGCCUUGCGCCGGGAAACCACGCAAGGGAUGGUGUCAAAUUCGGCGAAACCUAAGCGCCCGCCCGGGCGUAUGGCAACGCAGAGCCAAGCUUCGGCGCCUGCGCCGAUGUAGGUGUAGCGACUAGACGGCACCCACCUAAGGCGAACGGUAUGGUGAAGGCAUAGUCCAGGGAGAGGCGAAAGUCACACAAACCGG [C82A A111U A120C A145G C150G U176A], the reverse-splicing fitness falls from 0.0126 to 0.00848.

In the case of GUGCCUUGCGCCGGGAAACCACGCAAGGGAUGGUGUCAAAUUCGGCGAAACCUAAGCGCCCGCCCGGGCGUAUGGCAACGCAGAGCCAAGCUUCGGCGCCUGCGCCGAUGUAGGUGUAGCGACUAGACGGCACCCACCUAAGGCGAACGGUAUGGUGAAGGCAUAGUCCAGGGAGGGGCGAAAGUCACACAAACCGG [C82A A111U A120C A145G C150G U176G], the reverse-splicing fitness is reported as 0.00733.
